Paper PMC5939945 (ACS combinatorial science, 2017)

Key:
[1] = biological target: eIF4E (Homo sapiens, UniProt P06730); assay: PPI cat-ELCCA chemiluminescent competition assay of eIF4E–4E-BP1; format: binding
[2] = biological target: biotinylated eIF4E (eukaryotic translation initiation factor 4E), N-terminal HaloTag fusion (UniProt P06730); assay: PPI cat-ELCCA
[3] = biological target: biotinylated eIF4E (eukaryotic translation initiation factor 4E), N-terminal HaloTag fusion (UniProt P06730); assay: ELISA

Chain of unlabeled 4E-BP1 protein (Q13541 whole entry): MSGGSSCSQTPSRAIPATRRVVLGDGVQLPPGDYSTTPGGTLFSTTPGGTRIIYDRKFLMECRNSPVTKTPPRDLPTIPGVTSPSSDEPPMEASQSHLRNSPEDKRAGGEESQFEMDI
Chain of biotinylated eIF4E (eukaryotic translation initiation factor 4E), N-terminal HaloTag fusion (P06730 whole entry, the tested form may be a part): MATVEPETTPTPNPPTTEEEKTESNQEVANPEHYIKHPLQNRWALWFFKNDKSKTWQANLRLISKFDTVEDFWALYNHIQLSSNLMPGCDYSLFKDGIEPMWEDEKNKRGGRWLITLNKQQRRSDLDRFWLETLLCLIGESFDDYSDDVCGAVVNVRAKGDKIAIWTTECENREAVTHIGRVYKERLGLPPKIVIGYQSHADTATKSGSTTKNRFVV
Chain of eIF4E (P06730 2-217): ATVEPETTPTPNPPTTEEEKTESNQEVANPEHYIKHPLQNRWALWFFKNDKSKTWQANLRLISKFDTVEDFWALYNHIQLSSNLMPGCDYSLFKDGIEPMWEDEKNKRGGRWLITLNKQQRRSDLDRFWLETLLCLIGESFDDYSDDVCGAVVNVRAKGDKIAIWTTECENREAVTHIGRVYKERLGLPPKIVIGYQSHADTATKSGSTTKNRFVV
Chain of eIF4E (Q13541 2-118 partner): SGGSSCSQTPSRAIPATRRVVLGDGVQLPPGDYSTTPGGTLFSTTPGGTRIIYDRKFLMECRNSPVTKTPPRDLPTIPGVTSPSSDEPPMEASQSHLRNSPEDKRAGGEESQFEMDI
Chain of eIF4E (Q04637 whole entry partner, the tested form may be a part): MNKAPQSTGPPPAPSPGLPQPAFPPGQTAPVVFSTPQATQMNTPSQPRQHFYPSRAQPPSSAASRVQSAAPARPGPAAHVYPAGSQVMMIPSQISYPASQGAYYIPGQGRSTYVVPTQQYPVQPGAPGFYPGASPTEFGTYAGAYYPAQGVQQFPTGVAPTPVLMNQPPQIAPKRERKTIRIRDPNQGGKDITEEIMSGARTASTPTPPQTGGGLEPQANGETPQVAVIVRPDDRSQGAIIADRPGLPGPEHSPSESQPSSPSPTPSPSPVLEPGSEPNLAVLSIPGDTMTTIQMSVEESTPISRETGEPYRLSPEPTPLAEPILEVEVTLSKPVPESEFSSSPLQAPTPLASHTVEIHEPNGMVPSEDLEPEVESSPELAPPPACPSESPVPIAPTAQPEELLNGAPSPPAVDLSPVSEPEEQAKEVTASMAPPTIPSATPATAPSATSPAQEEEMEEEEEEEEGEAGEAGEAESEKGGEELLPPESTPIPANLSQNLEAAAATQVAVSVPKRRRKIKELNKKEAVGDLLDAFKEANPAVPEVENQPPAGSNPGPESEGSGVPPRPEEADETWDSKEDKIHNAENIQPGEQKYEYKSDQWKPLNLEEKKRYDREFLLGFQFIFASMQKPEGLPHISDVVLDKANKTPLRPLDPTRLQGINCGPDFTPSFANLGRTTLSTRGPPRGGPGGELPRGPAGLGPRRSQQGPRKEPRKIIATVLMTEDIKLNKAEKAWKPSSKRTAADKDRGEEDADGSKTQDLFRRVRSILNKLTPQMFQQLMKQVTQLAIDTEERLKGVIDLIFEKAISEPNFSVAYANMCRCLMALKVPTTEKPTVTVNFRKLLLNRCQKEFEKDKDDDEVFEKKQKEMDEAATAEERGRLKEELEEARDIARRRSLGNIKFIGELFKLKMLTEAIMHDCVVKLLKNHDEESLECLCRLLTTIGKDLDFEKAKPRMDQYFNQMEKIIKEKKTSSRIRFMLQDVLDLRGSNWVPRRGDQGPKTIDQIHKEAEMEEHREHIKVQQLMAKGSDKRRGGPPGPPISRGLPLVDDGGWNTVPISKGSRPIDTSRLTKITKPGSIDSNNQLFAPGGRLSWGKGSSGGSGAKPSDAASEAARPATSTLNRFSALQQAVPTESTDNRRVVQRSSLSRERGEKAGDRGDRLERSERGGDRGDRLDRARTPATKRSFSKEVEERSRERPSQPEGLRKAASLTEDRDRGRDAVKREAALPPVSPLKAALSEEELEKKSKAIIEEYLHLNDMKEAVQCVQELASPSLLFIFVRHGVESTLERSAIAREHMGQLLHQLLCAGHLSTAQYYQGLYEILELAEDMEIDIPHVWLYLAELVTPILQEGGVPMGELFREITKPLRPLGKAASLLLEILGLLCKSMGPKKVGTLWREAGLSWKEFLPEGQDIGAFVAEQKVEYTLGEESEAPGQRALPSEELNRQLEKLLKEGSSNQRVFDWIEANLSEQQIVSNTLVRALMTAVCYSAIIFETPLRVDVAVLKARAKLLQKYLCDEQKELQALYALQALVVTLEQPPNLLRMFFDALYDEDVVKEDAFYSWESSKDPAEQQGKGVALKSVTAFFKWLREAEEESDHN

| IC50 [1] [nM] | IC50 [2] [nM] | Kd [3] [nM] | Compound |
| --- | --- | --- | --- |
| 1800 ± 600 |  |  | O=C(O)c1ccc(N2C(=O)/C(=C\c3ccc(-c4ccc([N+](=O)[O-])cc4)o3)C=C2c2ccccc2)cc1 [4E1RCat] |
|  | 11 | 19 | unlabeled 4E-BP1 protein (from UniProt Q13541 1-118) (natural protein; other documents disagree on this pair) |
